The source of these data is paper PMC7015241, “Myopalladin promotes muscle growth through modulation of the serum response factor pathway” (Journal of Cachexia, Sarcopenia and Muscle, 2019).

The assay deals with Filamentous actin (F-actin) (rabbit, UniProt P68135 1-377). Briefly: co-sedimentation; 1–30 μM polymerized actin incubated with 10 μM MYPN Ig3, Ig4 or Ig3–4 domain for 1 h in 100 μL, 150 000×g for 30 min; SDS-PAGE of supernatants and pellets, densitometry; F-buffer (Tris, KCl, MgCl2, DTT, pH 8.0). Conditions: both partners purified.

B1: Myopalladin (MYPN) Ig3-4 tandem domain (domain or fragment)
chain: PIFDKRLKHFRVTEGSPVTFTCKIVGIPVPKVYWFKDGKQISKRNEHCKMRREGDGTCSLHIESTTSDDDGNYTIMAANPQGRISCSGHLMVQSLPIRSRLTSAGQSHRGRSRVQERDKEPLQERFFRPHFLQAPGDMVAHEGRLCRLDCKVSGLPPPELTWLLNGQPVLPDASHKMLVRETGVHSLLIDPLTQRDAGTYKCIATNKTGQNSFSLELS
In turn, B1 yielded a Kd of 4.6 µM.

Usually Kd stands for the concentration at which binding is half-saturated. A low value points to higher affinity.
